Numbered stars: 1 amine (or outer) side, 2 acyl side, 3 side chain; on linkers, the order of the positions; unused ones are H or OH. Bridge positions count the residues as written; N and C are the ends. Side chains are listed from the residue outwards. Ends that are not written are not given here. * marks the point of attachment. C20 diacid = O=C(O)CCCCCCCCCCCCCCCCCCC(=O)*; γGlu = O=C(O)[C@H](CCC(=O)[*:2])N[*:1]; AEEA = NCCOCCOCC(=O)O
T1: rat calcitonin receptor (rat, UniProt P32214 25-516)
T1 construct: whole, on cells; Membranes prepared from transiently transfected BHK tk'ts 13 cells (Assay VIII); also called rCTR; rCT
T1 sequence (looked up): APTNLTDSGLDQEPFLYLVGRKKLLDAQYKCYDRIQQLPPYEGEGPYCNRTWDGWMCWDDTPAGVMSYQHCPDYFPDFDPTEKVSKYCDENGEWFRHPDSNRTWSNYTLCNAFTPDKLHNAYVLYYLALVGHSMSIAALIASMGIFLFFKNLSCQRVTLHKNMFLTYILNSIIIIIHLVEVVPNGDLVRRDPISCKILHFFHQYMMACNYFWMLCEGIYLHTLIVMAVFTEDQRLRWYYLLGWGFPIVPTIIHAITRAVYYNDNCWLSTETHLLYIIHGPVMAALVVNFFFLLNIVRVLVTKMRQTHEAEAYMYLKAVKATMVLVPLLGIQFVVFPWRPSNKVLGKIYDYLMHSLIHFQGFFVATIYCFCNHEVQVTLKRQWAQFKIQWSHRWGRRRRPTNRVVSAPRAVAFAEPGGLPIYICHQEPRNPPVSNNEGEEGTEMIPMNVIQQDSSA

T2: human calcitonin receptor (human, UniProt P30988 25-474)
T2 construct: whole, on cells; Membranes prepared from a stably transfected BHK cell line (Assay VII); also called hCTR; hCT
T2 sequence (looked up): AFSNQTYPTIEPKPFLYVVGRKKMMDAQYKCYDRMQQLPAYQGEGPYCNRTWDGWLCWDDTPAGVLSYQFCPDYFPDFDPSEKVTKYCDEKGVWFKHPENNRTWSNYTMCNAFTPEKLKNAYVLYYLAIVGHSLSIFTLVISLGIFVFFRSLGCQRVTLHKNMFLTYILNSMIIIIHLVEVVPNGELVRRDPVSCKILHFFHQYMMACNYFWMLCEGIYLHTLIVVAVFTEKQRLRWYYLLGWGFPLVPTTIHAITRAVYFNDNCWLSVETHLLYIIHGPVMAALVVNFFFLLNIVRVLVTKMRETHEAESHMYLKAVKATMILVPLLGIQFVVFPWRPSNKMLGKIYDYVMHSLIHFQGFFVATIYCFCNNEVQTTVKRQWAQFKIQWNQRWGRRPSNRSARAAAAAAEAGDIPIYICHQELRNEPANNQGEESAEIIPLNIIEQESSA

T3: rat amylin receptor (rat calcitonin receptor + rat RAMP 3) (rat, UniProt P32214 25-516; Q9JJ73 23-147)
T3 construct: whole, on cells; Membranes prepared from transiently transfected BHK tk'ts 13 cells (Assay VI); also called rAmylin-R; rAmylin
T3 sequence (looked up) 1: T1 sequence (looked up)
T3 sequence (looked up) 2: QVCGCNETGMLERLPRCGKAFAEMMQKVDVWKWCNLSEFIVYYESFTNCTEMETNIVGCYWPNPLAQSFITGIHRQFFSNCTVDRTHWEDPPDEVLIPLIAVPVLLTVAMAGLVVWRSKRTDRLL

B1: N^ε1-[2-[2-[2-[[(4S)-4-carboxy-4-(19-carboxynonadecanoylamino)butanoyl]amino]ethoxy]ethoxy]acetyl]-[His14,Arg17,Pro21,Pro27,His34]-h-amylin (peptide)
peptide: K([AEEA-γGlu-C20 diacid])CNTATCATQRLAHFLRHSSPNFGAIPSSTNVGHNTY-NH2
modifications: disulfide 2-7; N-terminus assumed
SMILES: CC[C@H](C)[C@H](NC(=O)[C@H](C)NC(=O)CNC(=O)[C@H](Cc1ccccc1)NC(=O)[C@H](CC(N)=O)NC(=O)[C@@H]1CCCN1C(=O)[C@H](CO)NC(=O)[C@H](CO)NC(=O)[C@H](Cc1c[nH]cn1)NC(=O)[C@H](CCCNC(=N)N)NC(=O)[C@H](CC(C)C)NC(=O)[C@H](Cc1ccccc1)NC(=O)[C@H](Cc1c[nH]cn1)NC(=O)[C@H](C)NC(=O)[C@H](CC(C)C)NC(=O)[C@H](CCCNC(=N)N)NC(=O)[C@H](CCC(N)=O)NC(=O)[C@@H](NC(=O)[C@H](C)NC(=O)[C@@H]1CSSC[C@H](NC(=O)[C@@H](N)CCCCNC(=O)COCCOCCNC(=O)CC[C@H](NC(=O)CCCCCCCCCCCCCCCCCCC(=O)O)C(=O)O)C(=O)N[C@@H](CC(N)=O)C(=O)N[C@@H]([C@@H](C)O)C(=O)N[C@@H](C)C(=O)N[C@@H]([C@@H](C)O)C(=O)N1)[C@@H](C)O)C(=O)N1CCC[C@H]1C(=O)N[C@@H](CO)C(=O)N[C@@H](CO)C(=O)N[C@H](C(=O)N[C@@H](CC(N)=O)C(=O)N[C@H](C(=O)NCC(=O)N[C@@H](Cc1c[nH]cn1)C(=O)N[C@@H](CC(N)=O)C(=O)N[C@H](C(=O)N[C@@H](Cc1ccc(O)cc1)C(N)=O)[C@@H](C)O)C(C)C)[C@@H](C)O
notes: Analogue of human amylin; also called compound 80
B2: N^ε1-[2-[2-[2-[[(4S)-4-carboxy-4-(19-carboxynonadecanoylamino)butanoyl]amino]ethoxy]ethoxy]acetyl]-[Lys14,Arg17,Pro21,Pro27,Pro31]-h-amylin (peptide)
peptide: K([AEEA-γGlu-C20 diacid])CNTATCATQRLAKFLRHSSPNFGAIPSSTPVGSNTY-NH2
modifications: disulfide 2-7; N-terminus assumed
SMILES: CC[C@H](C)[C@H](NC(=O)[C@H](C)NC(=O)CNC(=O)[C@H](Cc1ccccc1)NC(=O)[C@H](CC(N)=O)NC(=O)[C@@H]1CCCN1C(=O)[C@H](CO)NC(=O)[C@H](CO)NC(=O)[C@H](Cc1c[nH]cn1)NC(=O)[C@H](CCCNC(=N)N)NC(=O)[C@H](CC(C)C)NC(=O)[C@H](Cc1ccccc1)NC(=O)[C@H](CCCCN)NC(=O)[C@H](C)NC(=O)[C@H](CC(C)C)NC(=O)[C@H](CCCNC(=N)N)NC(=O)[C@H](CCC(N)=O)NC(=O)[C@@H](NC(=O)[C@H](C)NC(=O)[C@@H]1CSSC[C@H](NC(=O)[C@@H](N)CCCCNC(=O)COCCOCCNC(=O)CC[C@H](NC(=O)CCCCCCCCCCCCCCCCCCC(=O)O)C(=O)O)C(=O)N[C@@H](CC(N)=O)C(=O)N[C@@H]([C@@H](C)O)C(=O)N[C@@H](C)C(=O)N[C@@H]([C@@H](C)O)C(=O)N1)[C@@H](C)O)C(=O)N1CCC[C@H]1C(=O)N[C@@H](CO)C(=O)N[C@@H](CO)C(=O)N[C@H](C(=O)N1CCC[C@H]1C(=O)N[C@H](C(=O)NCC(=O)N[C@@H](CO)C(=O)N[C@@H](CC(N)=O)C(=O)N[C@H](C(=O)N[C@@H](Cc1ccc(O)cc1)C(N)=O)[C@@H](C)O)C(C)C)[C@@H](C)O
notes: Analogue of human amylin; also called compound 74
B3: N^ε1-[2-[2-[2-[[(4S)-4-carboxy-4-(19-carboxynonadecanoylamino)butanoyl]amino]ethoxy]ethoxy]acetyl]-[His14,Arg17,Pro21,Pro27,Pro31]-h-amylin (peptide)
peptide: K([AEEA-γGlu-C20 diacid])CNTATCATQRLAHFLRHSSPNFGAIPSSTPVGSNTY-NH2
modifications: disulfide 2-7; N-terminus assumed
SMILES: CC[C@H](C)[C@H](NC(=O)[C@H](C)NC(=O)CNC(=O)[C@H](Cc1ccccc1)NC(=O)[C@H](CC(N)=O)NC(=O)[C@@H]1CCCN1C(=O)[C@H](CO)NC(=O)[C@H](CO)NC(=O)[C@H](Cc1c[nH]cn1)NC(=O)[C@H](CCCNC(=N)N)NC(=O)[C@H](CC(C)C)NC(=O)[C@H](Cc1ccccc1)NC(=O)[C@H](Cc1c[nH]cn1)NC(=O)[C@H](C)NC(=O)[C@H](CC(C)C)NC(=O)[C@H](CCCNC(=N)N)NC(=O)[C@H](CCC(N)=O)NC(=O)[C@@H](NC(=O)[C@H](C)NC(=O)[C@@H]1CSSC[C@H](NC(=O)[C@@H](N)CCCCNC(=O)COCCOCCNC(=O)CC[C@H](NC(=O)CCCCCCCCCCCCCCCCCCC(=O)O)C(=O)O)C(=O)N[C@@H](CC(N)=O)C(=O)N[C@@H]([C@@H](C)O)C(=O)N[C@@H](C)C(=O)N[C@@H]([C@@H](C)O)C(=O)N1)[C@@H](C)O)C(=O)N1CCC[C@H]1C(=O)N[C@@H](CO)C(=O)N[C@@H](CO)C(=O)N[C@H](C(=O)N1CCC[C@H]1C(=O)N[C@H](C(=O)NCC(=O)N[C@@H](CO)C(=O)N[C@@H](CC(N)=O)C(=O)N[C@H](C(=O)N[C@@H](Cc1ccc(O)cc1)C(N)=O)[C@@H](C)O)C(C)C)[C@@H](C)O
notes: Analogue of human amylin; also called compound 61
B4: N^ε1-[2-[2-[2-[[(4S)-4-carboxy-4-(19-carboxynonadecanoylamino)butanoyl]amino]ethoxy]ethoxy]acetyl]-[Ser14,Arg17,Pro21,Pro27,Pro31]-h-amylin (peptide)
peptide: K([AEEA-γGlu-C20 diacid])CNTATCATQRLASFLRHSSPNFGAIPSSTPVGSNTY-NH2
modifications: disulfide 2-7; N-terminus assumed
SMILES: CC[C@H](C)[C@H](NC(=O)[C@H](C)NC(=O)CNC(=O)[C@H](Cc1ccccc1)NC(=O)[C@H](CC(N)=O)NC(=O)[C@@H]1CCCN1C(=O)[C@H](CO)NC(=O)[C@H](CO)NC(=O)[C@H](Cc1c[nH]cn1)NC(=O)[C@H](CCCNC(=N)N)NC(=O)[C@H](CC(C)C)NC(=O)[C@H](Cc1ccccc1)NC(=O)[C@H](CO)NC(=O)[C@H](C)NC(=O)[C@H](CC(C)C)NC(=O)[C@H](CCCNC(=N)N)NC(=O)[C@H](CCC(N)=O)NC(=O)[C@@H](NC(=O)[C@H](C)NC(=O)[C@@H]1CSSC[C@H](NC(=O)[C@@H](N)CCCCNC(=O)COCCOCCNC(=O)CC[C@H](NC(=O)CCCCCCCCCCCCCCCCCCC(=O)O)C(=O)O)C(=O)N[C@@H](CC(N)=O)C(=O)N[C@@H]([C@@H](C)O)C(=O)N[C@@H](C)C(=O)N[C@@H]([C@@H](C)O)C(=O)N1)[C@@H](C)O)C(=O)N1CCC[C@H]1C(=O)N[C@@H](CO)C(=O)N[C@@H](CO)C(=O)N[C@H](C(=O)N1CCC[C@H]1C(=O)N[C@H](C(=O)NCC(=O)N[C@@H](CO)C(=O)N[C@@H](CC(N)=O)C(=O)N[C@H](C(=O)N[C@@H](Cc1ccc(O)cc1)C(N)=O)[C@@H](C)O)C(C)C)[C@@H](C)O
notes: Analogue of human amylin; also called compound 73
B5: N^ε1-[2-[2-[2-[[(4S)-4-carboxy-4-(19-carboxynonadecanoylamino)butanoyl]amino]ethoxy]ethoxy]acetyl]-[His14,Arg17,Pro21,Pro27,Pro34]-h-amylin (peptide)
peptide: K([AEEA-γGlu-C20 diacid])CNTATCATQRLAHFLRHSSPNFGAIPSSTNVGPNTY-NH2
modifications: disulfide 2-7; N-terminus assumed
SMILES: CC[C@H](C)[C@H](NC(=O)[C@H](C)NC(=O)CNC(=O)[C@H](Cc1ccccc1)NC(=O)[C@H](CC(N)=O)NC(=O)[C@@H]1CCCN1C(=O)[C@H](CO)NC(=O)[C@H](CO)NC(=O)[C@H](Cc1c[nH]cn1)NC(=O)[C@H](CCCNC(=N)N)NC(=O)[C@H](CC(C)C)NC(=O)[C@H](Cc1ccccc1)NC(=O)[C@H](Cc1c[nH]cn1)NC(=O)[C@H](C)NC(=O)[C@H](CC(C)C)NC(=O)[C@H](CCCNC(=N)N)NC(=O)[C@H](CCC(N)=O)NC(=O)[C@@H](NC(=O)[C@H](C)NC(=O)[C@@H]1CSSC[C@H](NC(=O)[C@@H](N)CCCCNC(=O)COCCOCCNC(=O)CC[C@H](NC(=O)CCCCCCCCCCCCCCCCCCC(=O)O)C(=O)O)C(=O)N[C@@H](CC(N)=O)C(=O)N[C@@H]([C@@H](C)O)C(=O)N[C@@H](C)C(=O)N[C@@H]([C@@H](C)O)C(=O)N1)[C@@H](C)O)C(=O)N1CCC[C@H]1C(=O)N[C@@H](CO)C(=O)N[C@@H](CO)C(=O)N[C@H](C(=O)N[C@@H](CC(N)=O)C(=O)N[C@H](C(=O)NCC(=O)N1CCC[C@H]1C(=O)N[C@@H](CC(N)=O)C(=O)N[C@H](C(=O)N[C@@H](Cc1ccc(O)cc1)C(N)=O)[C@@H](C)O)C(C)C)[C@@H](C)O
notes: Analogue of human amylin; also called compound 68

Each binder was assayed against T1, rat calcitonin receptor (assay: ratio of binding IC50s: rat calcitonin receptor / rat amylin receptor (reference)).

Binder | Ratio rCT/rAmylin binding
B1 | 36.2
B2 | 22.3
B3 | 39.7
B4 | 178
B5 | 122

These binders were tested against T2, human calcitonin receptor (assay: ratio of binding IC50s: human calcitonin receptor / human amylin receptor (reference)).
Summary of the method: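 Membranes (35 ng/μL final) + SPA beads, 50 mM Hepes pH 7.4 buffer with 1 mM CaCl2, 5 mM MgCl₂, 0.1% OA, 0.02% Tween20; 120 min, 25° C, shaking; centrifuged, counted; IC₅₀ by one-site binding competition.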

Binder | Ratio hCT/hAmylin binding
B1 | 68.1
B2 | 101
B3 | 66.7
B4 | 51.7
B5 | 64.4

Each binder was assayed against T1, rat calcitonin receptor (assay: SPA competition vs 125I-calcitonin, membranes of BHK cells with rat calcitonin receptor (Assay VIII)).

Binder | IC50
B1 | 60.4 nM
B2 | 109 nM
B3 | 33.4 nM
B4 | 50.3 nM
B5 | 28.5 nM

The binders below were run against T3, rat amylin receptor (rat calcitonin …) (assay: SPA competition vs 125I-rat amylin, membranes of BHK cells with rat calcitonin receptor + rat RAMP3 (Assay VI)).

Binder | IC50
B1 | 1.67 nM
B2 | 4.89 nM
B3 | 0.842 nM
B4 | 0.283 nM
B5 | 0.234 nM
